The values below come from patent publication US20260207798A1, “CYCLIC PEPTIDES AS PET IMAGING AGENTS OF GRANZYME B” (priority 2022, published 2026).

Bridge positions count the residues as written; N and C are the ends.

To fix the notation:
B1: Compound 32a (peptide)
peptide: {CH2CO}-FNFEDQSRDTWQPCG-NH2
modifications: thioether N-14
SMILES: C[C@@H](O)[C@@H]1NC(=O)[C@H](CC(=O)O)NC(=O)[C@H](CCCNC(=N)N)NC(=O)[C@H](CO)NC(=O)[C@H](CCC(N)=O)NC(=O)[C@H](CC(=O)O)NC(=O)[C@H](CCC(=O)O)NC(=O)[C@H](Cc2ccccc2)NC(=O)[C@H](CC(N)=O)NC(=O)[C@H](Cc2ccccc2)NC(=O)CSC[C@@H](C(=O)NCC(N)=O)NC(=O)[C@@H]2CCCN2C(=O)[C@H](CCC(N)=O)NC(=O)[C@H](Cc2c[nH]c3ccccc23)NC1=O
B2: Compound 57a (peptide)
peptide: {CH2CO}-FNFEDQSPSTWQPCG-NH2
modifications: thioether N-14
SMILES: C[C@@H](O)[C@@H]1NC(=O)[C@H](CO)NC(=O)[C@@H]2CCCN2C(=O)[C@H](CO)NC(=O)[C@H](CCC(N)=O)NC(=O)[C@H](CC(=O)O)NC(=O)[C@H](CCC(=O)O)NC(=O)[C@H](Cc2ccccc2)NC(=O)[C@H](CC(N)=O)NC(=O)[C@H](Cc2ccccc2)NC(=O)CSC[C@@H](C(=O)NCC(N)=O)NC(=O)[C@@H]2CCCN2C(=O)[C@H](CCC(N)=O)NC(=O)[C@H](Cc2c[nH]c3ccccc23)NC1=O
B3: Compound 46a (peptide)
peptide: {CH2CO}-FNFEDQSPRTWQPCG-NH2
modifications: thioether N-14
SMILES: C[C@@H](O)[C@@H]1NC(=O)[C@H](CCCNC(=N)N)NC(=O)[C@@H]2CCCN2C(=O)[C@H](CO)NC(=O)[C@H](CCC(N)=O)NC(=O)[C@H](CC(=O)O)NC(=O)[C@H](CCC(=O)O)NC(=O)[C@H](Cc2ccccc2)NC(=O)[C@H](CC(N)=O)NC(=O)[C@H](Cc2ccccc2)NC(=O)CSC[C@@H](C(=O)NCC(N)=O)NC(=O)[C@@H]2CCCN2C(=O)[C@H](CCC(N)=O)NC(=O)[C@H](Cc2c[nH]c3ccccc23)NC1=O
B4: Compound 56a (peptide)
peptide: {CH2CO}-FNFEDQSPQTWQPCG-NH2
modifications: thioether N-14
SMILES: C[C@@H](O)[C@@H]1NC(=O)[C@H](CCC(N)=O)NC(=O)[C@@H]2CCCN2C(=O)[C@H](CO)NC(=O)[C@H](CCC(N)=O)NC(=O)[C@H](CC(=O)O)NC(=O)[C@H](CCC(=O)O)NC(=O)[C@H](Cc2ccccc2)NC(=O)[C@H](CC(N)=O)NC(=O)[C@H](Cc2ccccc2)NC(=O)CSC[C@@H](C(=O)NCC(N)=O)NC(=O)[C@@H]2CCCN2C(=O)[C@H](CCC(N)=O)NC(=O)[C@H](Cc2c[nH]c3ccccc23)NC1=O
B5: Compound 59a (peptide)
peptide: {CH2CO}-FNFEDQSPYTWQPCG-NH2
modifications: thioether N-14
SMILES: C[C@@H](O)[C@@H]1NC(=O)[C@H](Cc2ccc(O)cc2)NC(=O)[C@@H]2CCCN2C(=O)[C@H](CO)NC(=O)[C@H](CCC(N)=O)NC(=O)[C@H](CC(=O)O)NC(=O)[C@H](CCC(=O)O)NC(=O)[C@H](Cc2ccccc2)NC(=O)[C@H](CC(N)=O)NC(=O)[C@H](Cc2ccccc2)NC(=O)CSC[C@@H](C(=O)NCC(N)=O)NC(=O)[C@@H]2CCCN2C(=O)[C@H](CCC(N)=O)NC(=O)[C@H](Cc2c[nH]c3ccccc23)NC1=O
B6: Compound 39a (peptide)
peptide: {CH2CO}-YNFEDQSPDTWQPCG-NH2
modifications: thioether N-14
SMILES: C[C@@H](O)[C@@H]1NC(=O)[C@H](CC(=O)O)NC(=O)[C@@H]2CCCN2C(=O)[C@H](CO)NC(=O)[C@H](CCC(N)=O)NC(=O)[C@H](CC(=O)O)NC(=O)[C@H](CCC(=O)O)NC(=O)[C@H](Cc2ccccc2)NC(=O)[C@H](CC(N)=O)NC(=O)[C@H](Cc2ccc(O)cc2)NC(=O)CSC[C@@H](C(=O)NCC(N)=O)NC(=O)[C@@H]2CCCN2C(=O)[C@H](CCC(N)=O)NC(=O)[C@H](Cc2c[nH]c3ccccc23)NC1=O
B7: Compound 33a (peptide)
peptide: {CH2CO}-FNFEDQSKDTWQPCG-NH2
modifications: thioether N-14
SMILES: C[C@@H](O)[C@@H]1NC(=O)[C@H](CC(=O)O)NC(=O)[C@H](CCCCN)NC(=O)[C@H](CO)NC(=O)[C@H](CCC(N)=O)NC(=O)[C@H](CC(=O)O)NC(=O)[C@H](CCC(=O)O)NC(=O)[C@H](Cc2ccccc2)NC(=O)[C@H](CC(N)=O)NC(=O)[C@H](Cc2ccccc2)NC(=O)CSC[C@@H](C(=O)NCC(N)=O)NC(=O)[C@@H]2CCCN2C(=O)[C@H](CCC(N)=O)NC(=O)[C@H](Cc2c[nH]c3ccccc23)NC1=O
B8: Compound 44a (peptide)
peptide: {CH2CO}-FNFEDQSPATWQPCG-NH2
modifications: thioether N-14
SMILES: C[C@@H]1NC(=O)[C@@H]2CCCN2C(=O)[C@H](CO)NC(=O)[C@H](CCC(N)=O)NC(=O)[C@H](CC(=O)O)NC(=O)[C@H](CCC(=O)O)NC(=O)[C@H](Cc2ccccc2)NC(=O)[C@H](CC(N)=O)NC(=O)[C@H](Cc2ccccc2)NC(=O)CSC[C@@H](C(=O)NCC(N)=O)NC(=O)[C@@H]2CCCN2C(=O)[C@H](CCC(N)=O)NC(=O)[C@H](Cc2c[nH]c3ccccc23)NC(=O)[C@H]([C@@H](C)O)NC1=O
B9: Compound 34a (peptide)
peptide: {CH2CO}-FNFEDQSAKTWQPCG-NH2
modifications: thioether N-14
SMILES: C[C@@H]1NC(=O)[C@H](CO)NC(=O)[C@H](CCC(N)=O)NC(=O)[C@H](CC(=O)O)NC(=O)[C@H](CCC(=O)O)NC(=O)[C@H](Cc2ccccc2)NC(=O)[C@H](CC(N)=O)NC(=O)[C@H](Cc2ccccc2)NC(=O)CSC[C@@H](C(=O)NCC(N)=O)NC(=O)[C@@H]2CCCN2C(=O)[C@H](CCC(N)=O)NC(=O)[C@H](Cc2c[nH]c3ccccc23)NC(=O)[C@H]([C@@H](C)O)NC(=O)[C@H](CCCCN)NC1=O
B10: Compound 37a (peptide)
peptide: {CH2CO}-FNFEDQSAHTWQPCG-NH2
modifications: thioether N-14
SMILES: C[C@@H]1NC(=O)[C@H](CO)NC(=O)[C@H](CCC(N)=O)NC(=O)[C@H](CC(=O)O)NC(=O)[C@H](CCC(=O)O)NC(=O)[C@H](Cc2ccccc2)NC(=O)[C@H](CC(N)=O)NC(=O)[C@H](Cc2ccccc2)NC(=O)CSC[C@@H](C(=O)NCC(N)=O)NC(=O)[C@@H]2CCCN2C(=O)[C@H](CCC(N)=O)NC(=O)[C@H](Cc2c[nH]c3ccccc23)NC(=O)[C@H]([C@@H](C)O)NC(=O)[C@H](Cc2c[nH]cn2)NC1=O
B11: Compound 36a (peptide)
peptide: {CH2CO}-FNFEDQSAYTWQPCG-NH2
modifications: thioether N-14
SMILES: C[C@@H]1NC(=O)[C@H](CO)NC(=O)[C@H](CCC(N)=O)NC(=O)[C@H](CC(=O)O)NC(=O)[C@H](CCC(=O)O)NC(=O)[C@H](Cc2ccccc2)NC(=O)[C@H](CC(N)=O)NC(=O)[C@H](Cc2ccccc2)NC(=O)CSC[C@@H](C(=O)NCC(N)=O)NC(=O)[C@@H]2CCCN2C(=O)[C@H](CCC(N)=O)NC(=O)[C@H](Cc2c[nH]c3ccccc23)NC(=O)[C@H]([C@@H](C)O)NC(=O)[C@H](Cc2ccc(O)cc2)NC1=O
B12: Compound 35a (peptide)
peptide: {CH2CO}-FNFEDQSAWTWQPCG-NH2
modifications: thioether N-14
SMILES: C[C@@H]1NC(=O)[C@H](CO)NC(=O)[C@H](CCC(N)=O)NC(=O)[C@H](CC(=O)O)NC(=O)[C@H](CCC(=O)O)NC(=O)[C@H](Cc2ccccc2)NC(=O)[C@H](CC(N)=O)NC(=O)[C@H](Cc2ccccc2)NC(=O)CSC[C@@H](C(=O)NCC(N)=O)NC(=O)[C@@H]2CCCN2C(=O)[C@H](CCC(N)=O)NC(=O)[C@H](Cc2c[nH]c3ccccc23)NC(=O)[C@H]([C@@H](C)O)NC(=O)[C@H](Cc2c[nH]c3ccccc23)NC1=O
B13: Compound 58a (peptide)
peptide: {CH2CO}-FNFEDQSPKTWQPCG-NH2
modifications: thioether N-14
SMILES: C[C@@H](O)[C@@H]1NC(=O)[C@H](CCCCN)NC(=O)[C@@H]2CCCN2C(=O)[C@H](CO)NC(=O)[C@H](CCC(N)=O)NC(=O)[C@H](CC(=O)O)NC(=O)[C@H](CCC(=O)O)NC(=O)[C@H](Cc2ccccc2)NC(=O)[C@H](CC(N)=O)NC(=O)[C@H](Cc2ccccc2)NC(=O)CSC[C@@H](C(=O)NCC(N)=O)NC(=O)[C@@H]2CCCN2C(=O)[C@H](CCC(N)=O)NC(=O)[C@H](Cc2c[nH]c3ccccc23)NC1=O

T1 sequence (P10144 21-247 limits assumed): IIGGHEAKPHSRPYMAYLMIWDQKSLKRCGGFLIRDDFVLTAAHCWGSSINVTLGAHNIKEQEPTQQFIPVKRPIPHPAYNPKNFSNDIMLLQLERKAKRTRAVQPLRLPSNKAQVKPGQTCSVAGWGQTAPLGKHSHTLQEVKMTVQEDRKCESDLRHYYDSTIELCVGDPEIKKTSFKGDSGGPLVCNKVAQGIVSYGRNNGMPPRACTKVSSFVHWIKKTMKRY

This test addresses T1, human Granzyme B (human, UniProt P10144 21-247).
T1 construct: Captured on a Series S Streptavidin chip for SPR; also called hGranzyme B; GzmB
Briefly: SPR, Biacore 8k+, hGranzyme B captured on SA chip, single cycle kinetics, 1:1 model. The method, then: The kinetics of test peptide binding to human Granzyme B (hGranzyme B) was determined by SPR. All experiments were performed at 25° C. using the Biacore 8k+ instrument (Cytiva, Marlborough, MA). The Biacore 8k+ Insight Evaluation Software Version 3.0 was used to fit the data with a 1:1 binding model to determine the association rate constant kₐ (M⁻¹s⁻¹, where “M” ~equals molar and “s” ~equals seconds) and the dissociation rate constant kd (s⁻¹). These rate constants were used to calculate the equilibrium dissociation constant. KD (M)=kd/kₐ.
To measure the binding kinetics of peptides of interest, surfaces were prepared by a capture method to a Series S Streptavidin (SA) chip using a 1×HBS-EP+ running buffer (Cytiva). hGranzyme B was diluted to 10 μg/mL in IX HBS-EP+ and flowed over spot 2 of each flow cell on the chip at a flow rate of 10 ul/min for 20 s to achieve a level of capture of ~1100 RU. An unmodified spot 1 of each flow cell was used as a matrix binding control or reference surface. Binding kinetics were measured using single cycle kinetics at 25° C. by injecting 5 concentrations with 3-fold serial dilutions of test peptides from 0.01 μM to 1 μM. Compound dilutions were performed manually in a running buffer containing 1×HBS-EP+(Cytiva), and a final concentration of 2% DMSO. The interaction analyses over hGranzyme B, were performed using a 120 s association time and a 900 s dissociation time. All experiments were conducted at a flow rate of 50 μL/min with a data collection rate of 10 Hz.
Peptide dilution series included 2 zero concentration points (no compound) which were averaged and subtracted from the peptide concentration injection as DMSO control responses. Binding data acquired from the reference surface (matrix binding control) were subtracted from the binding data for hGranzyme B surface on the chip to determine specific binding. Next, the association phase data were solvent corrected to account for any signal fluctuation throughout the experiment due to subtle DMSO concentration differences. Corrected response data were analyzed using the Biacore 8k+ Evaluation Software Version 3.0 according to the manufacturer. SPR data for representative compounds of the disclosure are found in Table 8.
In general terms: SPR reads the build-up and loss of mass on a sensor chip optically.
As a reminder, the Kd is the equilibrium constant for the complex coming apart. Low values mean tighter binding, high ones weaker binding. In turn, B1 had an equilibrium dissociation constant (Kd) of 30.3 nM.

B2 returned a dissociation constant Kd of 5.7 nM. To B3 belongs 3.8 nM; to B4, 5.5 nM. To B5 belongs 6 nM; to B6, 1.1 nM; to B7, 33.9 nM. The value for B8 was 3.5 nM; that for B9 was 29.3 nM; that for B10 was 19.1 nM.

Take B11: the Kd worked out at 24.2 nM. The value for B12 was 24 nM; that for B13 was 5.9 nM.
